Source: paper PMC2931317

Biological target: T1, DIP1-c (Disconnected Interacting Protein 1, longest isoform) (Drosophila melanogaster, UniProt C6TP62 1-410)
T1 sequence: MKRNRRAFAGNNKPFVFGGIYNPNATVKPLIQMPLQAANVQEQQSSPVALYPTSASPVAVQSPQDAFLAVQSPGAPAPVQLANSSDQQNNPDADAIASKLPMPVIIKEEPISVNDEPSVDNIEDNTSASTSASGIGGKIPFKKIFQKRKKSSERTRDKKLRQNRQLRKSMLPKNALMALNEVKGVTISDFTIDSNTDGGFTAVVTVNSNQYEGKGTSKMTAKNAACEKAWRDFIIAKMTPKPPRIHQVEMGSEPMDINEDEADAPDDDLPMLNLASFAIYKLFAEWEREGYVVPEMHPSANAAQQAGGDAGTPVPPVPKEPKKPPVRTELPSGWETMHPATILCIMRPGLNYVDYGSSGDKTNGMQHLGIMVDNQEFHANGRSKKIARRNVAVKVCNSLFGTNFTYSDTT
Assay: EMSA

B1: dsDNA40 (dsDNA)
DNA 1: CCGGGCTGCACATGGTTAATGGCCAGTCCACGCGTAGATC
DNA 2: GATCTACGCGTGGACTGGCCATTAACCATGTGCAGCCCGG
With B1 the Kd was 26 ± 8 nM.
